Laboratory results reported in paper PMC7616460, “Skraban-Deardorff intellectual disability syndrome-associated mutations in WDR26 impair CTLH E3 complex assembly” (FEBS letters, 2024).

Molecular target: the molecule itself
Assay: cryo-EM structure; focused refinement (Relion v4.0) of the prior map EMD-12545 over the WDR26-YPEL5 region, 6.7 Å; fitted with AlphaFold2 models

B1: WDR26 in the CTLH subcomplex of the cryo-EM map EMD-12545 / EMD-19039 (natural protein, human, UniProt Q9H7D7 1-661, looked up)
chain: MQANGAGGGGGGGGGGGGGGGGGGGQGQTPELACLSAQNGESSPSSSSSAGDLAHANGLLPSAPSAASNNSNSLNVNNGVPGGAAAASSATVAAASATTAASSSLATPELGSSLKKKKRLSQSDEDVIRLIGQHLNGLGLNQTVDLLMQESGCRLEHPSATKFRNHVMEGDWDKAENDLNELKPLVHSPHAIVVRGALEISQTLLGIIVRMKFLLLQQKYLEYLEDGKVLEALQVLRCELTPLKYNTERIHVLSGYLMCSHAEDLRAKAEWEGKGTASRSKLLDKLQTYLPPSVMLPPRRLQTLLRQAVELQRDRCLYHNTKLDNNLDSVSLLIDHVCSRRQFPCYTQQILTEHCNEVWFCKFSNDGTKLATGSKDTTVIIWQVDPDTHLLKLLKTLEGHAYGVSYIAWSPDDNYLVACGPDDCSELWLWNVQTGELRTKMSQSHEDSLTSVAWNPDGKRFVTGGQRGQFYQCDLDGNLLDSWEGVRVQCLWCLSDGKTVLASDTHQRIRGYNFEDLTDRNIVQEDHPIMSFTISKNGRLALLNVATQGVHLWDLQDRVLVRKYQGVTQGFYTIHSCFGGHNEDFIASGSEDHKVYIWHKRSELPIAELTGHTRTVNCVSWNPQIPSMMASASDDGTVRIWGPAPFIDHQNIEEECSSMDS
notes: WDR26, human; the fitted AlphaFold2 model is of isoform 1 (Q9H7D7-1); subcomplex held WDR26, RANBP9, TWA1, ARMC8, GID4 and YPEL5; also called WDR26 dimer
- stoichiometry N: 2
